Stoichiometry N data for 2 substances are collected here from paper doi:10.1101/2025.09.09.675230.

Test [1] has as its target Measles virus hemagglutinin (H) ectodomain with twin StrepII tag (HECT-TS), residues 149-617 (Measles virus strain IC323 (Ichinose-B95a)). Kind of test: cryo-EM structure.
Test [2] deals with Measles virus hemagglutinin (H) ectodomain, untagged (HECT), residues 149-617 (Measles virus strain IC323 (Ichinose-B95a)). Kind of test: cryo-EM structure.

By stoichiometry N is commonly meant a count of units in the complex or per binding partner. “Measles virus hemagglutinin (H) ectodomain with twin StrepII tag (HECT-TS), residues 149-617 (domain or fragment)” came in with a stoichiometry N in test [1] of 2.

In the case of “Measles virus hemagglutinin (H) ectodomain, untagged (HECT), residues 149-617 (domain or fragment)”, the stoichiometry N in test [2] was determined as 2.
